Target: T1, recombinant CD137-Fc fusion (#838-4B-100, R&D Systems) (human, UniProt Q07011 24-186)
T1 construct: also called Fc-fusion of human CD137; human CD137-Fc; not shown: Fc part of the bought fusion
Experiment: ELISA, CD137-Fc coated, detection with anti-hNGAL antibody-HRP

B1: lipocalin mutein of SEQ ID NO: 2 (designed binder)
chain: QDSTSDLIPAPPLSKVPLQQNFQDNQFHGKWYVVGQAGNIRLREDKDPIKMMATIYELKEDKSYDVTMVKFDDKKCMYDIWTFVPGSQPGEFTLGKIKSFPGHTSSLVRVVSTNYNQHAMVFFKFVFQNREEFYITLYGRTKELTSELKENFIRFSKSLGLPENHIVFPVPIDQCIDG
notes: also called positive control lipocalin mutein; CD137-specific lipocalin mutein in monomeric form
  EC50: 0.49 nM
